Test results reported in the DeepSol protein solubility set.

Assay: soluble on expression in E. coli; label from the status in PepcDB or PDB records

## MIDQHQYIERESGSVCNERLFGDRLIRLLYHGARENAPFLFKMATSSWSSGLLGFINFDLPFGSNRRFLEECGVDLDECLDPPESLDTPRKVFERRIRYEQCRPMPEVQWAVVSPADARVLVGSFRDTSALFLKEKFFDFEELLGRHKEEWLRAFTGGEFAVFRLTPDKYHYNHTPVAGTVRDIYEIDGGYHSCNPGAVVIEATPFSKNRRVVTVIDTDVPGGTGVGLVAMIEVVALMIGQIVQCYSYEGYTAPRPVEPGMFLRRGVPKSLYRPGSSTDVLIFQRDRMHFADDIVRNMHDTRAASRFSHGFGRPLVETDVKVRSLIAVAVTNLEHHHHHH
  soluble on expression in E. coli: not soluble

## SAGTQLFRFREEPGPGGNRAVLEVRVPQVLHVQYGMYVWPCAVVLAQYLWFHRRSLPGKAVLEVGAGVSLPGILAAKCGAKVILSDSSEFPHCLDICRQSCQMNNLPQVEVVGLTWGHISKDILSLPPQDIILGSDVFFEPEDFESILATVYFLMQKNPKVQFWSTYQVRSADWSLEGLLYKWDMKCVHIPLESFDADKEDIAESTLPGRHTVEMLIISFAKDSF
  soluble on expression in E. coli: soluble

## STGPVAPLPTPPNFPNDIALFQQAYQNWSKEIMLDATWVCSPKTPQDVVRLANWAHEHDYKIRPRGAMHGWTPLTVEKGANVEKVILADTMTHLNGITVNTGGPVATVTAGAGASIEAIVTELQKHDLGWANLPAPGVLSIGGALAVNAHGAALPAVGQTTLPGHTYGSLSNLVTELTAVVWNGTTYALETYQRNDPRITPLLTNLGRCFLTSVTMQAGPNFRQRCQSYTDIPWRELFAPKGADGRTFEKFVAESGGAEAIWYPFTEKPWMKVWTVSPTKPDSSNEVGSLGSAGSLVGKPPQAREVSGPYNYIFSDNLPEPITDMIGAINAGNPGIAPLFGPAMYEITKLGLAATNANDIWGWSKDVQFYIKATTLRLTEGGGAVVTSRANIATVINDFTEWFHERIEFYRAKGEFPLNGPVEIRCCGLDQAADVKVPSVGPPTISATRPRPDHPDWDVAIWLNVLGVPGTPGMFEFYREMEQWMRSHYNNDDATFRPEWSKGWAFGPDPYTDNDIVTNKMRATYIEGVPTTENWDTARARYNQIDPHRVFTNGFMDKLLP
  soluble on expression in E. coli: soluble

## MSKIARKDVERLIELVGGPDNIASVSHCLTRLRFVLNDTDKADTKQLEALRMVKGCFTNAGQFQVVIGTEVDEVYKVLIELSGKSEASKDESKNAARQNMNIVERGISHLAE
  soluble on expression in E. coli: not soluble

## MSLSQQVPAASFTLLDGQKLSTQDLKGKVYLVNFWATSCATCVKEMPNMIQTYNKFKGQGLEFVAVAMSYDPPMYVMNYSQTRQLPFKVAMDADGAAARAFGDVQLTPTTFLVDRNGRILRRYVGEPEWASFETLLRDTLAKQAEGLITITTDPNSSSVDKLAAALEHHHHHH
  soluble on expression in E. coli: soluble

## ALIDVVVVCDESNSIYPWDAVKNFLEKFVQGLDIGPTKTQVGLIQYANNPRVVFNLNTYKTKEEMIVATSQTSQYGGDLTNTFGAIQYARKYAYSAASGGRRSATKVMVVVTDGESHDGSMLKAVIDQCNHDNILRFGIAVLGYLNRNALDTKNLIKEIKAIASIPTERYFFNVSDEAALLEKAG
  soluble on expression in E. coli: soluble

## MINSKKELRKNMVLKRDSLEPDLKSIKDNMIYNKVINSIQYKSANNIFVFVSYKSEVDTHNIIRTAIADGKKVFVPKVISKEKGMEAAEIRGFFDLEKSAYGILEPKSSNYIEPESIELLLVPGLAFDESGGRIGYGGGFYDRYMSLLDKSAVKVGICYDFQVIDKVIMNINDVPVDKIIVGLEHHHHHH
  soluble on expression in E. coli: not soluble

## MGSDKIHHHHHHMQLPSLQSATLIRRYKRFLADVQLPSGDITTLHCANTGAMIGCGSQGDTLWYSTSDSATRKYPSSWELTQLANGHLVCINTHRSNQLTFDALQKKQIIELAMYDKIYPEVKYGEENSRIDFLLKGKDLPDCYVEVKSITYVDNDKKLGMFPDAVTTRGQKHLRELISMKKQGHRAVIFFCGLHDGFDHFQIAKHIDARYDELLHQALKEGVEAYAYAAEFEKTQGIPTALNLTKVAPFKAG
  soluble on expression in E. coli: not soluble

## MSLLPTILTVDDEEMIRDLMVTALSREGYRCFQAGSAEEARSVLQNNKIDLAILDIMMPGLSGDDFLKELKVLSPETVVLMVTALSDTETAMKCIHLGAYDYILKPFDIDRVLLTIHNALEKQRLLAENREYQANLEKKVDEQTRQIRMAMEDLNLAYNHTLTALVRALDAREKETGSHSERVMTYTLLLGEAMGVPEKDLSVMARGALLHDIGKVGISDNILLKPAKLDEREWMEMMRHPQLGYEILSGIKFLKGPAEIVFAHHERFDGSGYPKGLSRSGIPLGARIFSLVDTLDAMTSDRPYRKALPFEAVTSEVRRCRGTQFDPEIVDIFLSIPRERWEVVGKRHFIVGEGHHHHHH
  soluble on expression in E. coli: not soluble

## MMNKKEARTLIKERRMNLSKEYIDVASDKIFEKLLQNEDFKNVKTVMSYMDFKNEVKTDRINTFIKNSGKILVLPKVVDKETMIVIEDKNQYIVSPFGNKEPDGEEYKGSIDVIITPGVAFDRDKNRVGFGRGYYDRFFVKQPNAKKIAIAFEKQIIDEGIETDKYDKKVDILITEDEIIKLEHHHHHH
  soluble on expression in E. coli: soluble

## MGTVHARSMDSYPMYGRDLGVNTDDMEVMEAVQETKQEVLENKDVVVQHVNIEGLGRTKEDYLGYEISDVFTARNLVEVMRKSHEARQRLLRLGIFRDVEVVIDISEGADALPNGLDVTFEVTELKRLTGSYNTMVGNNEGSMVLGIKLPNMLGRGEKLTFQFSYGTKETSYGLSFFKPQSGYFERNFTVNLYKVTGQFPWSSLKETDRGVSTELSLPLWMTDHTLKWEGVWRELGCLARSASFAVREESGHTLKSALSHTMVVDTRNSAILPRKGALLRINQELAGYTGGDANFLKEDVELQLNKQFIWGSVLSASLWGGMIYPLGAQPTSIADRFYLGGPTSVRGFGMYSIGPQSEGDYLGGEAYWAGGLHLYTPLPFRSNKGGLADLFRTHFFLNAGNICNLNYGEGPRAHLQKLAECIRWSYGAGIILRLGNIARLELNYCFPMGVQSGDRICDGVQFGAGIRFL
  soluble on expression in E. coli: soluble

## MGSDKIHHHHHHMDQARTTTVDHPDRETPFLLFAQHGWDDRSYPIQQMAQSIAPQYSQVYAPNLGRFRTWIAIEPLIQSVEAVVLEAIAQYPDRPLRFLGHSMGGLIWLEVLSRHREWWDRTHSLVLVGSPVSGSDVCRLLDPFGRLPSIAKDLGRNRRPLAEAIAAQIPTASIVSDLGDYSDGLVPVNSSEFERATLVTLKDISHARLKSHPQVADAIAQFWKQPSIAPRPRDRAGTLIAQLRSLNLTECNHRNFAKAAVLKSQPDGVKIWRWLNPLRVQHIFVSSPDPATGRDCCRYAAYTGWLDDAALSKFLEKL
  soluble on expression in E. coli: not soluble

## MGSDKIHHHHHHMRREKKKGSDDQMADENEEYLMETRFSAEHIGLKLLEKKIITEQQFEDALRRQKSRGGGLGDVLIELGYLTEERLNQLLNAFPSVPKTIEDTGLDASFLADLVLKHSLSLREFRLADMVRRVKLPLSIVDSIVETLQREKMLEVKGGDGLARATYRFSITGIGENRAAGLLEICRYVGPAPVSLSDYREKVLTQSIQRVVVNPLTLKNALSHLVINPDLLKALGPALTSGQTIFLYGPTGNGKSSIAEAIGNVLPGTIFVPYAVYVEGELITVFDPVNHVPAPSETEDGKMDHRWLQIRRPVIMTGGELTLRTLDLEFNPISKFYIAPLQMKANNGLFIIDDFGRQQIEPKMLLNRWIVPLEKRVDFLTLHTGMKFSIPFDQLVIFATNLKPMELADEAFLRRIRYKIFIDYPSKEDFEVIFRKACEMKNVAFDPKAFQFLQDIYEKLGIQRSANHPRDLLEHIIDQSRYYGQEPELTVEGVSAAWEQNFIKNF
  soluble on expression in E. coli: not soluble

## MEVHKAITAHSRKQNESVKACLQLDAQREAAIEAAVSLASNGKEFSVDVINVVTKQINDLAKNGVTLQRKYVTEEMVMEYVSRLKKKEGR
  soluble on expression in E. coli: not soluble

## MSDWSPMHEAAIHGHQLSLRNLISQGWAVNIITADHVSPLHEACLGGHLSCVKILLKHGAQVNGVTADWHTPLFNACVSGSWDCVNLLLQHGASVQPESDLASPIHEAARRGHVECVNSLIAYGGNIDHKISHLGTPLYLACENQQRACVKKLLESGADVNQGKGQDSPLHAVARTASEELACLLMDFGADTQAKNAEGKRPVELVPPESPLAQLFLEREGPPSLMQLCRLRIRKCFGIQQHHKITKLVLPEDLKQFLLHL
  soluble on expression in E. coli: soluble

## RKILDSKAIDLMNALMRLNQIRPGLQYKLLSQSGPVHAPVFTMSVDVDGTTYEASGPSKKTAKLHVAVKVLQAMGYPTGFDADI
  soluble on expression in E. coli: soluble

## MAHHHHHHMRCFTPRLSAAGNGVWRGFRQMYEEYALWRDRRDDERYAAVSEEGEEGITLSNRRICANPNACPRSVLLVPADCIVEAFRRERRGGVTADAVMFDLTCCRGSRGEARDNILRFLQAEEKGEKRGEDISEGQCSHADERGRYLIRVNSPEFDSANGFLDMELAALLGERIEGVLLPAVTVNTYSLVEEYIHPSHHLWALFDTPLSVVQASEICRQGHYRYAVMGSRRLAEDLHLPIGGVTYGDTYRGENNSENATPAALLGSLPLLNSSLQVLLAARAFNMNILDDAFEDASDTAGFSRDLHLSRSLGFEGKLVINPAQLASCHAAFAPSAEELSWARGVQQRMARRYATEESAGKLEAAQWRRAACLLERHREAELQGAAPTQRGGGGGVE
  soluble on expression in E. coli: not soluble

## MANFPASLLILNGKSADNQPLREAITLLRDEGIQIHVRVTWEKGDAQRYVDEARRLGVETVIAGGGDGTINEVSTALIQIRDGVAPALGLLPLGTANDFATSAGIPEALDKALKLAIAGNAMEIDMAMVNDKTCFINMATGGFGTRITTETPEKLKAALGGVSYLIHGLMRMDTLTPDRCEIRGENFHWQGDALVIGIGNGRQAGGGQQLCPTALINDGLLQLRIFTGEELLPALFSTLTQSDDNPNIIDGASAWFDIHAPHEITFNLDGEPLSGQEFHIEVLPGALRCRLPPDCPLLR
  soluble on expression in E. coli: soluble

## MQSVLNLGKTTVTTCTFLRAASTSLQGKGPLKTNWKENVVYLYQFPRPANRQPNLSPYCLKIETFLRANRIKHEVVGTWLTLRQSPRGLLPFIELNGQQISDSQVIVWKLQKHFDLDDKLEGSDRGTARAVERMIDLSTNYALLVDKTVNNAHLLLARQVSNLPLPSFLTNYLAKGFSQTARKRVNGVLGKLDVAEQKELLRRDIRAIDDILGDKKFLFGDRITSVDCSVFGQIGAVFYLPYRQQISDLLEDDFPRVRAYCDRIRQHYYPEWRDD
  soluble on expression in E. coli: not soluble

## MQNDNHSTAQPEKDVARLTEEVREAIAHGGDIENAIRNLTLKAMHSNGLDIESLKQIATAVMKGVQEGAQQKMTHAAEQSHAAQSQITQAVVGLDTAFAQLAGASKLALEEAASKAKQFSDSELTKAQADLKDLESVFLDTLKHTATAAQGLIAETLRDMLSHAQHNGTAVGMQLKDTLAVFAHQMASTGRAQFEAGVKLTQTTADLLYKISTGVLSGITSQTNRDDK
  soluble on expression in E. coli: not soluble

## MSLYIDGTFSYSLYRKICTDRSAVNKASNTQESSVAKPSIIKTSENPLQTIEVEVYDEYGEKLVKSIACERPLTVLLNWKEIVTLMTLGSRPEALVLGYLKNQSFISDPEALDSIIIDWETHSAAVVTRENIDHLEPALKKKTVTSGCGQGTMYGNVMKQLEHYQVPQQPIKQSQIYAALEALTHYNDTYKKAGAVHGCAICQEDRVLSFVEDVGRHNAVDTLAGEMWLNGMRGDDKIFYTTGRLTSEMVIKVAQMGIPVLLSRSGVTQMGLELAQRFGITTIARASGRRFHVYSGADKMVFDVKGHSEEAEGHHHHHH
  soluble on expression in E. coli: soluble

## MKISSIDSIFAAWDGSITEARRLQSDMAERIVLKDEPNLLSEPTLLAGFDVGFEDEGRTTRAAAVLMNAGDLRLLETHVVRVPTSMPYVPGLLSFRELPALLQALTQLSRIPALVFVDGHGIAHPRRLGIAAHFGLVTNLPCIGVAKKRLVGDFVEPGTAFGEHTPILLHGTQVGWALRSKMHCKPLIISPGHKVSLHSALTWTQRCLTGYRLPEPTRQADRLASRRGQKIVSDLPSLLLEHHHHHH
  soluble on expression in E. coli: soluble
